Experimental data taken from US20180002415A1 (Chugai, published 2018).

T1: recombinant cynomolgus monkey C5 (cynomolgus monkey, UniProt P01031 20-1676 (human entry), limits assumed)
T1 construct: also called cynoC5
T1 chain: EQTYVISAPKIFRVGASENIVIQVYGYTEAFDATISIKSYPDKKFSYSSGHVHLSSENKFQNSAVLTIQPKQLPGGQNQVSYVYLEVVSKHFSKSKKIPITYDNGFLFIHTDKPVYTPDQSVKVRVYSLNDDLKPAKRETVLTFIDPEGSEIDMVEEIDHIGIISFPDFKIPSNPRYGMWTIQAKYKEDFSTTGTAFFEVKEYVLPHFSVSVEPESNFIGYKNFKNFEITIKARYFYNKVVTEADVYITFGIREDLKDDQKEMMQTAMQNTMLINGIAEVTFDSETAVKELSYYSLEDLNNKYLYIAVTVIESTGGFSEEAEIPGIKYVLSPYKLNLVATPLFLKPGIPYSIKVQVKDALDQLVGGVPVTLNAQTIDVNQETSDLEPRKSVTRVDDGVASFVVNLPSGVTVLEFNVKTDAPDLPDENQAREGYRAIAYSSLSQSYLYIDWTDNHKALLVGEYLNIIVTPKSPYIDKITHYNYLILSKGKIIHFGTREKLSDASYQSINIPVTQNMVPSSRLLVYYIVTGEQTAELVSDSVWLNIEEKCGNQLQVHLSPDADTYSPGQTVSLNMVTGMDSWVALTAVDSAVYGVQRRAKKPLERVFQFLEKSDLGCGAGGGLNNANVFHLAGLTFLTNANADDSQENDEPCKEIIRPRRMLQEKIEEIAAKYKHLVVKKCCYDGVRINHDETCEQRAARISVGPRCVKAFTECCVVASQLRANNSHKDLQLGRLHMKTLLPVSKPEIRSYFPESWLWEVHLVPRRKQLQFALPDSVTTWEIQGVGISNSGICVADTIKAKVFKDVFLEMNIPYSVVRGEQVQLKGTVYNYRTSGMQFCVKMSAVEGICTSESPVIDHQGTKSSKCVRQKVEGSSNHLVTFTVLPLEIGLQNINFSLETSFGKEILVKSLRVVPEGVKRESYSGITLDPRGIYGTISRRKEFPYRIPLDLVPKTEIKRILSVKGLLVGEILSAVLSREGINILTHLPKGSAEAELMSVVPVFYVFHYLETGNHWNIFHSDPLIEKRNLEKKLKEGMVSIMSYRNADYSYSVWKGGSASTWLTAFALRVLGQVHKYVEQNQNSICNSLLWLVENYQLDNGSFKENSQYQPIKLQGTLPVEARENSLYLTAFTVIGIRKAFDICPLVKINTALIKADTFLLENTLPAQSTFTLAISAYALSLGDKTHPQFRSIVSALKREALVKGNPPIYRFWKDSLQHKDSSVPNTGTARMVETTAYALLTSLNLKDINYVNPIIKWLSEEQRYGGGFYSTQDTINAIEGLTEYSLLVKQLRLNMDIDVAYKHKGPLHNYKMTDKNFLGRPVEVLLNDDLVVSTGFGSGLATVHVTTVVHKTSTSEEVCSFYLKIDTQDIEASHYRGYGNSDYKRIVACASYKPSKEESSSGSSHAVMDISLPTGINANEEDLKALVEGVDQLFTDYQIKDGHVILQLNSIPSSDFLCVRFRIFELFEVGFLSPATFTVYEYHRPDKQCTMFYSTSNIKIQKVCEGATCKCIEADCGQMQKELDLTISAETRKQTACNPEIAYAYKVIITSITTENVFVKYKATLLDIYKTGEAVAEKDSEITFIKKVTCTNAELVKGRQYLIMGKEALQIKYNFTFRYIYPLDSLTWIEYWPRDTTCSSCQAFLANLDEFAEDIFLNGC

T2: 161-340
T2 construct: Expressed in E. coli
T2 GST fusion polypeptide: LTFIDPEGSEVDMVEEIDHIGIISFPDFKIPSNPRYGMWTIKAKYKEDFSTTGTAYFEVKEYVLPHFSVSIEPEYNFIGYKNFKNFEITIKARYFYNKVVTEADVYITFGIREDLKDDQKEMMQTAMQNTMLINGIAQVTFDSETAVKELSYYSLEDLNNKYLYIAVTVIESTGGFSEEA

T3: 321-500
T3 construct: Expressed in E. coli
T3 GST fusion polypeptide: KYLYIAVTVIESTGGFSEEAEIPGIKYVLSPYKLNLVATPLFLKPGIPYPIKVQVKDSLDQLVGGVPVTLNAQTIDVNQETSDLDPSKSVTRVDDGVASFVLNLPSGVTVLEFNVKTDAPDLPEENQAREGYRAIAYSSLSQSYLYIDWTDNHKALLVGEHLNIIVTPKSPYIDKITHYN

T4: 481-660
T4 construct: Expressed in E. coli
T4 GST fusion polypeptide: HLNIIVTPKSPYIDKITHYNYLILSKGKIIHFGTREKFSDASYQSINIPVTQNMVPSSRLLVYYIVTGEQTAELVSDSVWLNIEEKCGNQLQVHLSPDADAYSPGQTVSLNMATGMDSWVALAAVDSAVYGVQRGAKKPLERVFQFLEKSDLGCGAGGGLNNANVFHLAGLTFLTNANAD


Tests used:
[1] = target: T1, recombinant cynomolgus monkey C5; experiment: SPR (Biacore), 37C, pH 7.4
Method: (§1) To observe the cross-reactivity of anti-C5 antibodies against human C5 (hC5) and cynomolgus monkey C5 (cynoC5), BIACORE® kinetics analysis was performed.

[2] = target: T1, recombinant cynomolgus monkey C5; experiment: SPR (Biacore), pH 7.4; KD on cynoC5 against KD on hC5
Method: as §1

[3] = target: T1, recombinant cynomolgus monkey C5; experiment: SPR (Biacore), 37C, pH 7.4, Ab captured on ProA/G
Method: as §1

[4] = target: T5, C5 peptide 33-108 fused to GST-tag (human, UniProt P01031 33-108); experiment: summary drawing of the binding reactions to C5 beta-chain fragments
T5 construct: not shown: GST-tag (glutathione S-transferase); vector and linker not restated

[5] = target: T6, C5 peptide 45-111 fused to GST-tag (human, UniProt P01031 45-111); experiment: as above
T6 construct: not shown: GST-tag (glutathione S-transferase); vector and linker not restated

[6] = target: T7, C5 peptide 45-124 fused to GST-tag (human, UniProt P01031 45-124); experiment: as above
T7 construct: not shown: GST-tag (glutathione S-transferase); vector and linker not restated

[7] = target: T8, C5 peptide 52-124 fused to GST-tag (human, UniProt P01031 52-124); experiment: as above
T8 construct: not shown: GST-tag (glutathione S-transferase); vector and linker not restated

[8] = target: T9, C5 peptide 33-111 fused to GST-tag (human, UniProt P01031 33-111); experiment: as above
T9 construct: not shown: GST-tag (glutathione S-transferase); vector and linker not restated

[9] = target: T2, 161-340; experiment: Western blot of E. coli lysates expressing GST-fused C5 beta-chain fragments
Method: (§2) Anti-C5 monoclonal antibodies (MAbs) were tested for binding to C5 β-chain-derived peptides in Western blot analysis. […] The E. coli samples were harvested after incubation with 1 mM Isopropyl β-D-1-thiogalactopyranoside (IPTG) for 5 hours at 37° C., and centrifuged at 20000×g for 1 min to obtain pellets.

[10] = target: T3, 321-500; experiment: as above
Method: as §2

[11] = target: T4, 481-660; experiment: as above
Method: as §2

[12] = target: T5, C5 peptide 33-108 fused to GST-tag; experiment: Western blot of E. coli lysates expressing GST-fused MG1-MG2-derived fragments; rhC5 (0.5 ug) as control lane
Method: (§3) The anti-C5 MAbs were tested for binding to MG1-MG2 domain-derived peptides in Western blot analysis. […] The E. coli samples were harvested after incubation with 1 mM IPTG for 5 hours at 37° C., and centrifuged at 20000×g for 1 minute to obtain pellets. The pellets were suspended with the sample buffer solution (2ME+), and used for Western blot analysis.

[13] = target: T6, C5 peptide 45-111 fused to GST-tag; experiment: as above
Method: as §3

[14] = target: T7, C5 peptide 45-124 fused to GST-tag; experiment: as above
Method: as §3

[15] = target: T8, C5 peptide 52-124 fused to GST-tag; experiment: as above
Method: as §3

[16] = target: T9, C5 peptide 33-111 fused to GST-tag; experiment: as above
Method: as §3

[17] = target: T2, 161-340; experiment: summary drawing of the binding reactions to C5 beta-chain fragments
[18] = target: T3, 321-500; experiment: as above
[19] = target: T4, 481-660; experiment: as above

T7 sequence (P01031 45-124): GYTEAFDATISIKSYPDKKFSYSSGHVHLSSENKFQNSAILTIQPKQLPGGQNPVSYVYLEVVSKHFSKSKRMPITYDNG
T5 sequence (P01031 33-108): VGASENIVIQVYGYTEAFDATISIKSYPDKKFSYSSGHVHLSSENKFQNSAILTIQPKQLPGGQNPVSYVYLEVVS
T6 sequence (P01031 45-111): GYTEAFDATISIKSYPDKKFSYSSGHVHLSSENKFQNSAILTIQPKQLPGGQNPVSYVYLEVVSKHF
T9 sequence (P01031 33-111): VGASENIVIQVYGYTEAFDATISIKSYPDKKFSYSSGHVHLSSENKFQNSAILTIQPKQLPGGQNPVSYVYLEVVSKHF
T8 sequence (P01031 52-124): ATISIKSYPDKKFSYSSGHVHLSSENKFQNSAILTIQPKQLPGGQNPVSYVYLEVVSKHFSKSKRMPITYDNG

| fold weaker KD toward cynoC5 than toward hC5 [1] [fold] | fold weaker KD toward cynoC5 than toward hC5 [2] [times] | Kd [3] [nM] | binding result [4] | binding result [5] | binding result [6] | binding result [7] | binding result [8] | binding result [9] | binding result [10] | binding result [11] | binding result [12] | binding result [13] | binding result [14] | binding result [15] | binding result [16] | binding result [17] | binding result [18] | binding result [19] | Binder |
| --- | --- | --- | --- | --- | --- | --- | --- | --- | --- | --- | --- | --- | --- | --- | --- | --- | --- | --- | --- |
| 8 | 8 | 2.88 | no binding | no binding | no binding | no binding | no binding | no binding | no binding | no binding |  |  |  |  |  |  |  |  | CFA0672 (antibody, V domains shown, Chimeric, rabbit V regions; also called CFA0672-F760G4) VH: QSVEESGGRLVTPGTPLTLTCTASGFSLSGNAINWVRQAPGKGLEWIGCIYTGSDTTYYATWAKGRFTISKTSTTVDLKIASPTTEDTATYFCARGSGLWGPGTLVTVSS VL: DVVMTQTPASVSAPVGGTVTIKCQASQNIYSLLAWYQQKPGQPPKLLIYHTSDLASGVPSRFRGSGSGTEFTLTISDLECADAATYYCQCTAYGSSDVGGTFGGGTTVVVE |
|  |  | 55.4 |  |  |  |  |  | no binding | no binding | no binding | no binding | no binding | no binding | no binding | no binding |  |  |  | CFA0305 (antibody, V domains shown, Chimeric, rabbit V regions; also called CFA0305-F760G4) VH: QSLEESGGDLVKPGASLAVTCTASGFSSSSSYYMCWVRQAPGKGLEWIGCIYTGSGATYYASWAKGRFTISKTSSTTVTLQMTSLTVADTATYFCASDGGYVTPTHAMYLWGPGTLVTVSS VL: DVVMTQTPASVSAAVGGTVTIKCQASQNIGSDLAWYQQKPGQPPRLLIYGASKLASGVSSRFSGSGSGKEFTLTISDLECADAVTYYCQCTFVGSSYGNAFGGGTEVVVK |
|  |  | 17.9 | no binding | no binding | no binding | no binding | no binding |  |  |  |  |  |  |  |  | no binding | no binding | no binding | CFA0366 (antibody, V domains shown, Chimeric, rabbit V regions; also called CFA0366-F760G4) VH: QSLEESGGDLVKPGASLSLTCTAAGLDFSSSYYMCWVRQAPGKGLEWIACIYAGSSGIIYYANWAKGRFTISRPSSTTVTLQMTSLTAADTATYFCATYPTYGDGGHAFNLWGPGTLVTVSS VL: AQVLTQTPSSVSAAVGGTVTINCQSSQSVYSSDYLSWYQQKPGQPPKLLIYEASKLASGVPPRFSGSGSGTQFTLTISGVQCDDAATYYCQGTYYSSGWYFAFGGGTEVVVK |
